Source: PMC9503459, “Antifungal Activity, Structural Stability, and Immunomodulatory Effects on Human Immune Cells of Defensin from the Lentil Lens culinaris” (Membranes, 2022)
No end group written: not given here.

Legend:
[1] = system: human red blood cells (hRBC); assay: Hemolytic assay; type: cell-based; details: 100 μM, 4% hRBC in PBS pH 7.2, 1.5 h, 37 °C, A405
Procedure: Hemolytic activity of Lc-def was studied using 96-well microplates. Fresh human red blood cells (hRBC) were washed three times with ice-cold PBS, pH 7.2. Serial two-fold dilutions of Lc-def and membrane-active peptide melittin from the venom of honeybees as positive control (final concentrations from 0.1 to 100 μM) were then added to hRBC in PBS (final concentration of 4% (v/v)). The suspension was incubated for 1.5 h at 37 °C. After, intact hRBC sedimentation aliquots of the supernatants containing released hemoglobin were transferred to 96-well microplates, and the absorbance at 405 nm was measured. hRBC in PBS or 0.1% Triton X-100 were employed as negative (control0) and positive (control100) controls, respectively. The percentage of hemolysis was calculated as: hemolysis(%) = ((Asample − Acontrol0)/(Acontrol100 − Acontrol0)) × 100%. Experiment was carried out twice in triplicate using the same blood.

[2] = system: PBMCs; assay: Resazurin-based cytotoxicity assay, PBMCs; type: cell-based, human; details: 50 μM peptide, 24 h
Procedure: (§1) The cytotoxic properties of Lc-def and melittin as a control were investigated also by resazurin-based cell cytotoxicity assay. PBMCs and THP-1 cells were seeded in 96-well plates at 2 × 10^6 and 1 × 10^6 cells per well, respectively, in RPMI-1640 supplemented with 10% FBS, and kept in CO2-incubator. After 24 h serial two-fold dilutions of compounds in culture medium were then added to final concentrations from 0.2 to 50 μM. After 24 h of incubation with the peptides, resazurin (Sigma) was added at a final concentration of 0.7 mM, and the plates were incubated overnight (16 h). Fluorescent resorufin was registered using 535/595 filter at PlateReader AF2200 (Eppendorf, Hamburg, Germany). Untreated corresponding cells were used as negative controls. The cell viability was calculated as: cell viability (%) = (Fsample/Fcontrol) × 100%. The experiment was carried out twice in triplicate.

[3] = system: THP-1 cells; assay: Resazurin-based cytotoxicity assay, THP-1; type: cell-based, human; details: 0.2 to 50 μM, 24 h
Procedure: as §1

[4] = system: proteolytic enzymes of Candida albicans; assay: Influence of defensins on degradation of proteins by C. albicans lysate; type: biochemical; details: SDS-PAGE
Procedure: For study of Lc-def sensitivity to the clinical isolate of C. albicans, lysates of yeast cells in different concentration and pH were used basically as previously described for rhesus macaque θ-defensin 1 [22]. Cells were inoculated onto modified YPD medium and grown at 37 ℃ for 48 h before reaching the stationary phase of growth. Cells were harvested by centrifugation, washed two times in sterile phosphate buffered saline (PBS), pH 7.2, or sterile 40 mM sodium acetate, pH 4.0, and resuspended in the corresponding buffer to final concentrations of 1 × 10^9 cells/mL or 1 × 10^3 cells/mL. Two freeze-thaw cycles in liquid nitrogen were used for cell disruption, and supernatants were collected following centrifugation. Supernatants (12.5 μL) were mixed with water solutions (37.5 μL) of Lc-def, α-casein, Psd1, or LL-37 in concentration of 0.67 mg/mL and incubated at 37 ℃ for 72 or 24 h in the case of high or low cell concentration, respectively. To study the possible influence of Lc-def and Psd1 on the degradation process, supernatants (12.5 μL) were mixed with both α-casein or LL-37 in concentration of 1 mg/mL (25 μL) and Lc-def or Psd1 in concentration of 2 mg/mL (12.5 μL). As negative controls, α-casein and peptides were mixed with buffers as well as supernatants were mixed with water without the proteins. The samples were mixed with sample buffer without β-mercaptoethanol (BME), heated at 100 ℃ for 2 min, and analyzed by sodium dodecyl sulfate polyacrylamide gel electrophoresis (SDS-PAGE). Some independent experiments were performed in each case.

[5] = CD spectroscopy, secondary structure at different pH and temperature; type: physicochemical
Procedure: Circular dichroism spectra were recorded at different temperatures using a J-810 spectropolarimeter (Jasco, Hachioji, Tokyo, Japan) in a 0.1 cm path length quartz cell (Hellma GmbH and Co. KG, Mullheim, Germany) in the 190–250 nm range 0.2 using solutions of Lc-def in 10 mM phosphate buffer, pH 7.4, or 150 mM sodium chloride, pH 2.5, simulated gastric fluid, at a concentration of 30 µM. Lysolipids were added at final concentration of 1 mM.

[6] = C. albicans lysate 10^3 cells/mL, pH 7.2, up to 24 h
[7] = far-UV CD, 30 µM, 10 mM phosphate buffer pH 7.4
[8] = far-UV CD, 30 µM, 150 mM sodium chloride pH 2.5, simulated gastric fluid
[9] = pH 7.4, 20 °C end (after heating and cooling)

## Lc-def: defensin from lentil Lens culinaris seeds (UniProt:B3F051), recombinant, overexpressed in Escherichia coli (KTCENLSDSFKGPCIPDGNCNKHCKEKEHLLSGRCRDDFRCWCTRNC; disulfide (positions not given here); ends not checked; also: disulfide bonds present, pairing not given here; UniProt B3F051 28-74, looked up)
[1]
  hemolysis of erythrocytes: did not cause hemolysis
[2]
  cell viability: 100%
[3]
  cytotoxic activity: did not show any cytotoxic activity
[4]; [6]
  influence on LL-37 degradation: did not decrease LL-37 degradation
  influence on the rate of α-casein degradation: decreased the rate of α-casein degradation
[4]; C. albicans lysate 10^9 cells/mL
  influence on degradation of the major protein of C. albicans: decrease in degradation
[5]; +LPPC 1 mM, pH 7.4, 20 °C
  Random, %: 31%
  α-Helix, %: 16.4%
  β-Sheet, %: 30.3%
  β-Turn, %: 22.3%
[5]; +LPPC 1 mM, pH 7.4, 20 °C end
  Random, %: 32.8%
  α-Helix, %: 5.8%
  β-Sheet, %: 39.9%
  β-Turn, %: 21.5%
[5]; +LPPC 1 mM, pH 7.4, 98 °C
  Random, %: 33.7%
  α-Helix, %: 8.1%
  β-Sheet, %: 35.7%
  β-Turn, %: 22.5%
[5]; +LPPG 1 mM, pH 7.4, 20 °C
  Random, %: 33%
  α-Helix, %: 23.6%
  β-Sheet, %: 21%
  β-Turn, %: 22.4%
[5]; +LPPG 1 mM, pH 7.4, 20 °C end
  Random, %: 32.9%
  α-Helix, %: 21.7%
  β-Sheet, %: 23.1%
  β-Turn, %: 22.2%
[5]; +LPPG 1 mM, pH 7.4, 98 °C
  Random, %: 35%
  α-Helix, %: 18.5%
  β-Sheet, %: 24.1%
  β-Turn, %: 22.4%
[5]; [7]
  Random, %: 33.9%
  α-Helix, %: 15.5%
  β-Sheet, %: 28.5%
  β-Turn, %: 22.2%
[5]; [8]
  Random, %: 35.8%
  α-Helix, %: 13.9%
  β-Sheet, %: 25.4%
  β-Turn, %: 24.8%
[5]; pH 7.4, 20 °C (before heating)
  Random, %: 34%
  α-Helix, %: 15.9%
  β-Sheet, %: 27.7%
  β-Turn, %: 22.3%
[5]; [9]
  Random, %: 35.9%
  α-Helix, %: 9%
  β-Sheet, %: 32.1%
  β-Turn, %: 22.9%
[5]; pH 7.4, 98 °C
  Random, %: 35.3%
  α-Helix, %: 13.3%
  β-Sheet, %: 29.6%
  β-Turn, %: 21.8%
